We go through one molecule from publication doi:10.1101/2023.12.19.572309 (bioRxiv, 2023).

The target in the experiment is ATG16L1-(StrepII^2x)ATG5–ATG12 complex (UniProt Q676U5;Q9H1Y0;O94817). Nature of the experiment: BLI.
Sequence of ATG16L1-(StrepII^2x)ATG5–ATG12 complex (Q676U5 whole entry, chain 1 of 3): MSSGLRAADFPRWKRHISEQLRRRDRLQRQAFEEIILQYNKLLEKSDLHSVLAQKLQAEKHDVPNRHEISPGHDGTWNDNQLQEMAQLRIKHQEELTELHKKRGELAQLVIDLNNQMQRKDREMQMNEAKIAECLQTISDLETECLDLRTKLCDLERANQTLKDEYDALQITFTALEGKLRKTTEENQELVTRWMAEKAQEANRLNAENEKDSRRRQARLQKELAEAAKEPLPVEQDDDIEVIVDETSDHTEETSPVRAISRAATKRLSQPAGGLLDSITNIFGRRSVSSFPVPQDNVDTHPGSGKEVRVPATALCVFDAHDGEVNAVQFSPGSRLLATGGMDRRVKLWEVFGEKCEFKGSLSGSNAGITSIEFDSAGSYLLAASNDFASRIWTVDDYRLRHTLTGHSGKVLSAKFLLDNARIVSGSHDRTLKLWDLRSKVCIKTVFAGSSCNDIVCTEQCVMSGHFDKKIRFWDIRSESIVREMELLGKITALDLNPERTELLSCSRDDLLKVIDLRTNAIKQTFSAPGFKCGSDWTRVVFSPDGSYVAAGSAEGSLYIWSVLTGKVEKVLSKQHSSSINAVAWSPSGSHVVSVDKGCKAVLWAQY
Sequence of ATG16L1-(StrepII^2x)ATG5–ATG12 complex (Q9H1Y0 whole entry, chain 2 of 3): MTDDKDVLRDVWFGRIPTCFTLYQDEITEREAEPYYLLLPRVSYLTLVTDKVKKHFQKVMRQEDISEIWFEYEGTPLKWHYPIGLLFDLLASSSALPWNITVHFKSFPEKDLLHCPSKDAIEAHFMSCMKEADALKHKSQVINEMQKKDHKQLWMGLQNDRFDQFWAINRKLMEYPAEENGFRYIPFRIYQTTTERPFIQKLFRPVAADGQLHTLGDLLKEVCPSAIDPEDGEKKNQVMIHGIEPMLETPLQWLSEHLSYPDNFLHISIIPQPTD
Sequence of ATG16L1-(StrepII^2x)ATG5–ATG12 complex (O94817 whole entry, chain 3 of 3): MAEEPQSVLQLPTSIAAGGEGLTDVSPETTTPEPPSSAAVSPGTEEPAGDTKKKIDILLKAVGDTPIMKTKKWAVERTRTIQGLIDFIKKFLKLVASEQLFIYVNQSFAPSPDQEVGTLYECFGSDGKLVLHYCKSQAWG

B1: 6xHis-3xFLAG-V1H(1-351) (domain or fragment)
chain: MTKMDIRGAVDAAVPTNIIAAKAAEVRANKVNWQSYLQGQMISAEDCEFIQRFEMKRSPEEKQEMLQTEGSQCAKTFINLMTHICKEQTVQYILTMVDDMLQENHQRVSIFFDYARCSKNTAWPYFLPMLNRQDPFTVHMAARIIAKLAAWGKELMEGSDLNYYFNWIKTQLSSQKLRGSGVAVETGTVSSSDSSQYVQCVAGCLQLMLRVNEYRFAWVEADGVNCIMGVLSNKCGFQLQYQMIFSIWLLAFSPQMCEHLRRYNIIPVLSDILQESVKEKVTRIILAAFRNFLEKSTERETRQEYALAMIQCKVLKQLENLEQQKYDDEDISEDIKFLLEKLGESVQDLSS
As a reminder, the Kd is the concentration at which binding is half-saturated. Read a low Kd as tighter binding. B1 showed a Kd of 9.2 µM.
